Source: US20260274954A1 (published 2026)

Target: T1, cynomolgus PD-1 protein (construct not stated) (cynomolgus, UniProt B0LAJ3 25-170)
T1 construct: not shown: tag or Fc carrier of the recombinant (Sino Biological) cynomolgus PD-1
Experiment: ELISA, second round mutagenesis library screen; unit not given

T1 sequence (B0LAJ3 entry or part of it limits assumed, form in doubt): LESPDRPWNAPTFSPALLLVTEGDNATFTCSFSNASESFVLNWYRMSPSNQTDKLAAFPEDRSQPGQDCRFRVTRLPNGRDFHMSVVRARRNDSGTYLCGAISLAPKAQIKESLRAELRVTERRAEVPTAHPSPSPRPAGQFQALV

| Binder | Bmax |
| --- | --- |
| 2E5 (antibody, V domains shown) VH: QVQLVQSGAEVKKPGSSVKVSCKASGFTFTTYYISWVRQAPGQGLEYLGYINMGSGGTNYNEKFKGRVTITADKSTSTAYMELSSLRSEDTAVYYCAIIGYFDYWGQGTMVTVSS VL: DVVMTQSPLSLPVTLGQPASISCRSSQSLLDSDGGTYLYWFQQRPGQSPRRLIYLVSTLGSGVPDRFSGSGSGTDFTLKISRVEAEDVGVYYCMQLTHWPYTFGQGTKLEIK | 1.72 |
| 2B1 (antibody, V domains shown) VH: QVQLVQSGAEVKKPGSSVKVSCKASGFTFTTYYISWVRQAPGQGLEYLGYINMGSGGTNYNEKFKGRVTITADKSTSTAYMELSSLRSEDTAVYYCAIIGYFDYWGQGTMVTVSS VL: DVVMTQSPLSLPVTLGQPASISCRSSQSLLDSDGNTYLYWFQQRPGQSPRRLIYLVSTLGSGVPDRFSGSGSGTDFTLKISRVEAEDVGVYYCMQLTHWPYTFGQGTKLEIK | 1.21 |
| 2C2 (antibody, V domains shown) VH: QVQLVQSGAEVKKPGSSVKVSCKASGFTFTTYYISWVRQAPGQGLEYLGYINMGSGGTNYNEKFKGRVTITADKSTSTAYMELSSLRSEDTAVYYCAIIGYFDYWGQGTMVTVSS VL: DVVMTQSPLSLPVTLGQPASISCRSSQSLLDSDGATYLYWFQQRPGQSPRRLIYLVSTLGSGVPDRFSGSGSGTDFTLKISRVEAEDVGVYYCMQLTHWPYTFGQGTKLEIK | 1.67 |
| 5C4 (antibody, V domains shown) VH: QVQLVQSGAEVKKPGSSVKVSCKASGFTFTTYYISWVRQAPGQGLEYLGYINMGSGGTNYNEKFKGRVTITADKSTSTAYMELSSLRSEDTAVYYCAILGYFDYWGQGTMVTVSS VL: DVVMTQSPLSLPVTLGQPASISCRSSQSLLDSDGQTYLYWFQQRPGQSPRRLIYLVSTLGSGVPDRFSGSGSGTDFTLKISRVEAEDVGVYYCMQLTHEPYTFGQGTKLEIK | 0.258 |
| 1G10 (antibody, V domains shown) VH: QVQLVQSGAEVKKPGSSVKVSCKASGFTFTTYYISWVRQAPGQGLEYLGYINMGSGGTNYNEKFKGRVTITADKSTSTAYMELSSLRSEDTAVYYCAILGYFDYWGQGTMVTVSS VL: DVVMTQSPLSLPVTLGQPASISCRSSQSLLDSDGATYLYWFQQRPGQSPRRLIYLVSTLGSGVPDRFSGSGSGTDFTLKISRVEAEDVGVYYCMQLTHWPYTFGQGTKLEIK | 1.08 |
| 2G4 (antibody, V domains shown) VH: QVQLVQSGAEVKKPGSSVKVSCKASGFTFTTYYISWVRQAPGQGLEYLGYINMGSGGTNYNEKFKGRVTITADKSTSTAYMELSSLRSEDTAVYYCAIIGYFDYWGQGTMVTVSS VL: DVVMTQSPLSLPVTLGQPASISCRSSQSLLDSDGSTYLYWFQQRPGQSPRRLIYLVSTLGSGVPDRFSGSGSGTDFTLKISRVEAEDVGVYYCMQLTHWPYTFGQGTKLEIK | 1.72 |
| 8C10 (antibody, V domains shown) VH: QVQLVQSGAEVKKPGSSVKVSCKASGFTFTTYYISWVRQAPGQGLEYLGYINMGSGGTNYNEKFKGRVTITADKSTSTAYMELSSLRSEDTAVYYCAIIGYFDYWGQGTMVTVSS VL: DVVMTQSPLSLPVTLGQPASISCRSSQSLLDSDGQTYLYWFQQRPGQSPRRLIYLVSTLGSGVPDRFSGSGSGTDFTLKISRVEAEDVGVYYCMQLTHENYTFGQGTKLEIK | 1.11 |
| 1H6 (antibody, V domains shown) VH: QVQLVQSGAEVKKPGSSVKVSCKASGFTFTTYYISWVRQAPGQGLEYLGYINMGSGGTNYNEKFKGRVTITADKSTSTAYMELSSLRSEDTAVYYCAILGYFDYWGQGTMVTVSS VL: DVVMTQSPLSLPVTLGQPASISCRSSQSLLDSDGGTYLYWFQQRPGQSPRRLIYLVSTLGSGVPDRFSGSGSGTDFTLKISRVEAEDVGVYYCMQLTHWPYTFGQGTKLEIK | 0.317 |

Target: cynomolgus PD-1 protein (construct not stated) (cynomolgus) (UniProt B0LAJ3)
Experiment: as above

cynomolgus PD-1 protein (construct not stated) (cynomolgus), sequence (B0LAJ3 entry or part of it limits assumed): as the sequence (B0LAJ3 entry or part of it limits assumed, form in doubt) above

| Binder | Bmax |
| --- | --- |
| L1I (antibody, V domains shown) VH: QVQLVQSGAEVKKPGSSVKVSCKASGFTFTTYYISWVRQAPGQGLEYLGYINMGSGGTNYNEKFKGRVTITADKSTSTAYMELSSLRSEDTAVYYCAIIGYFDYWGQGTMVTVSS VL: DVVMTQSPLSLPVTLGQPASISCRSSQSLLDSDGNTYLYWFQQRPGQSPRRLIYLVSTLGSGVPDRFSGSGSGTDFTLKISRVEAEDVGVYYCMQLTHAPYTFGQGTKLEIK | 0.0517 |
